Results from patent US20150344580A1.

Tests used:
[1] = target: human chemokine receptor CCR7 (UniProt P32248); assay: flow cytometry, human CCR7 cells (summary table)
human CCR7-CHO cells = human CCR7-CHO cells (UniProt P32248); assay: FACS binding to CCR7-CHO cells
CCR7 (CCL-AAT) = CCR7 (CCL-AAT) (UniProt P32248); assay: cell binding; CLL-AAT cells
CCR7 (JVM-13) = CCR7 (JVM-13) (UniProt P32248); assay: cell binding; JVM-13 cells
[2] = target: human chemokine receptor CCR7 (UniProt P32248); assay: cell-based or functional assay
mouse CCR7 (mouse) = mouse CCR7 (mouse) (UniProt P47774); assay: flow cytometry, mouse CCR7 cells (summary table)
Sequence of mouse CCR7 (mouse) (P47774 25-378): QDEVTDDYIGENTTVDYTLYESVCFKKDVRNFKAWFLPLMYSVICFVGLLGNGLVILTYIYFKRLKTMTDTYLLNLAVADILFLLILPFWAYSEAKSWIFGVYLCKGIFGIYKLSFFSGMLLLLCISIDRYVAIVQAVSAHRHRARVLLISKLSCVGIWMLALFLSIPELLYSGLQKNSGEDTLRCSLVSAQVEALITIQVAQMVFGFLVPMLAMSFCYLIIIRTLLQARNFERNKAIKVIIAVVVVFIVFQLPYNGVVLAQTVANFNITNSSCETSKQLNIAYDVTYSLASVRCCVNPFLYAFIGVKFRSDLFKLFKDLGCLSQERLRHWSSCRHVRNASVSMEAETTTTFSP

Sequence of human chemokine receptor CCR7 (P32248 25-378 limits assumed): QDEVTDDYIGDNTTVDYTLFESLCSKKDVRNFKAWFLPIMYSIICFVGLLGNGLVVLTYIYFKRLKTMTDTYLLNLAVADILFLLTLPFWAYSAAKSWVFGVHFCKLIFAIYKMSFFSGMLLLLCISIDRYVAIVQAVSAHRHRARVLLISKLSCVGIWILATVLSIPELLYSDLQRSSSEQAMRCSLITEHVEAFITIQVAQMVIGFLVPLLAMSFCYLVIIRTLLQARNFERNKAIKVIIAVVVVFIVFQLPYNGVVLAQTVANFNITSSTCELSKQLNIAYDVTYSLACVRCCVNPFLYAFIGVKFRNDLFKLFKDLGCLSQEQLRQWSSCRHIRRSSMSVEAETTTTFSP
Sequence of human CCR7-CHO cells (P32248 25-378): as the sequence (P32248 25-378 limits assumed) above
Sequence of CCR7 (JVM-13) (P32248 25-378): as the sequence (P32248 25-378 limits assumed) above
Sequence of CCR7 (CCL-AAT) (P32248 25-378): as the sequence (P32248 25-378 limits assumed) above

**Q.** “IgG 3D12 (eBioscience), anti-human CCR7 control (antibody)” was tested. Which EC50 [1] did it give?
**A.** 3.4 nM

**Q.** How did the EC50 (human CCR7-CHO cells) turn out when IgG 3D12 eBioscience was run?
**A.** 3.2 nM

**Q.** IgG 150503 R&D Systems was tested. Which EC50 (human CCR7-CHO cells) did it give?
**A.** 5.9 nM

**Q.** Which Kd (CCR7 (CCL-AAT)) does the source give for MAB197 here?
**A.** 27 nM

**Q.** And the Kd (CCR7 (JVM-13))?
**A.** 20 nM

**Q.** Which results are given for “Mouse monoclonal IgG2A anti-human CCR7, clone 150503 (R&D Systems MAB197) (antibody)”?
**A.** IC50 of inhibition of Ca-flux induced by 15 nM CCL19, Chem-1 CCR7 human cells [2]: 10 nM; inhibition of chemotaxis of CLL-AAT cells toward 30 nM CCL19, 500 nM IgG [2]: 60%; EC50 [1]: 6.9 nM

**Q.** For “Rat IgG2A anti-mouse CCR7, clone 4B12 (R&D Systems MAB3477) (antibody)”, which EC50 (mouse CCR7 (mouse)) is on record?
**A.** 73.5 nM
